Patent publication US6849727
No end group written: not given here.

What was measured:
[1] = target: rat neuropeptide FF receptor (NPFF1) (rat) (UniProt Q9EP86); experiment: competition vs [125I]D-Tyr-NPFF, COS-7 membranes (SEM 0; may be a floor value)
[2] = target: rat spinal cord membrane receptor; experiment: competition binding, rat spinal cord membranes (SEM 0; may be a floor value)
[3] = target: rat spinal cord membrane receptor; experiment: competition binding, rat spinal cord membranes

Chain of rat neuropeptide FF receptor (NPFF1) (rat) (Q9EP86 whole entry): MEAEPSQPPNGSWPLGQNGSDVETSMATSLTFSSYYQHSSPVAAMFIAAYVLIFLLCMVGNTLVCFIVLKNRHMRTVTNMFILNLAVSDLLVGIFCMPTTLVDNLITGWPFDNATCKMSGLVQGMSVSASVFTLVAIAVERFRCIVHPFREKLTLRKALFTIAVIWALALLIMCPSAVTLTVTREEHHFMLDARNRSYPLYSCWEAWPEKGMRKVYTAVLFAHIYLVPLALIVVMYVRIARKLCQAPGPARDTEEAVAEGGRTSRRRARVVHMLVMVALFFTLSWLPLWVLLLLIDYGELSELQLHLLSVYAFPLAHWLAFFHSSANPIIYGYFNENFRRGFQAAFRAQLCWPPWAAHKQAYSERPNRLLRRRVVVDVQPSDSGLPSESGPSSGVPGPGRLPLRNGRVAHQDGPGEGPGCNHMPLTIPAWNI

| pKi [1] | pKi [2] | pKi [3] | Molecule |
| --- | --- | --- | --- |
| 5 | – | – | Tyr-MIF-1 (peptide) |
| – | – | 9.05 | rat NPFF (FLFQPQRF-NH2) (peptide) |
| – | – | 6.39 | PDVDHVFLRF-NH2 [Schisto(FLRFNH2) (Pro-Asp-Val-Asp-His-Val-Phe-Leu-Arg-Phe-amide)] |
| – | – | 9 | AGEGLSSPFWSLAAPQRF-NH2 [rat A-18-F-amide (…-NH2)] |

Continued, molecule first:

| Molecule | pKi [1] | pKi [2] | pKi [3] |
| --- | --- | --- | --- |
| Met5-Arg6-Phe7-Enk-OH (peptide) | 5 | 5 | – |
| H-KNQFIRF-NH2 [AF-1 (FMRF-like peptide H2N-Lys-Asn-Gln-Phe-Ile-Arg-Phe-NH2)] | – | – | 7.56 |
| H-KHQYLRF-NH2 [AF-2 (H-Lys-His-Gln-Tyr-Leu-Arg-Phe-NH2)] | – | – | 7.96 |
